In the supplement of paper PMC7125110:
± gives the standard error. This sample holds only a part of the variants without activity.

B1: glmS ribozyme (parent)
chain: AUAAAAGCGCCAGAACUACAGAAAUGUAGUUGACGAGGAGGAGGUUUAUCGAAUUUUCGGCGGAUGCCUCCAAA

Variants of: B1
Experiment: self-cleavage kobs at 2500 uM GlcN6P; higher = faster cleavage; RNA array
Conditions: with glucosamine-6-phosphate
Method in brief: (§1)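 Tracking of barcoded ribozyme variants used a hybridised Cy3 probe at 37 °C, after in situ transcription by E. coli RNA polymerase on sequenced MiSeq chips. The flowed solution held 40 μM to 10 mM glucosamine-6-phosphate in HEPES/KCl/Mg(OAc)2 buffer, and imaging ran over ~14 h. kobs was taken from exponential decay fits of normalised per-tile medians, and kcat and KM from weighted Michaelis–Menten fits.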

| Variant | self-cleavage kobs at 2500 uM GlcN6P [s⁻¹] |
| --- | --- |
| AUAAAAGCGCCAGAACUACAGAAAUGUAGUUGACGAGGUGGAGGUGUAUCGAAUUUUCGGCGGAUGCCUACAAA | 0.000101 ± 2.8e-05 |
| AUAAAAGCGCCAGAACUACAGAAAUGUAGUUGACGAGCAGGAGGUUUAUCGAAUUUACGGCGUAUGCCUCCAAA | < 1e-05 |
| AUAAAAGCGCCAGAACUACAGAAAUGUAGUUGACGAGGAAGAGGUUAAACGAAUUUUCGGCGGAUGCCUACAAA | < 1e-05 |
| AUAAAAGCGCCAGAACUACAGAAAUGUAGUUGACGAGGACGAGGUUUAUCGGAUGUUCGGCGGAUGCCUCCAAA | 4.2e-05 ± 1.1e-05 |
| AUAAAAGCGCCAGAACUACAGAAAUGUAGUUGACGAGGCGGAGGUUUAUCGAAUUUACGGCGGAUGGCUCCAAA | < 1e-05 |
| AUAAAAGCGCCAGAACUACAGAAAUGUAGUUGACGAGAAGGAGGUUUAUAGAAUUUUCGGCGGCUGCCUCCAAA | < 1e-05 |
| AUAAAAGCGCCAGAACUACAGAAAUGUAGUUGACGAUGAGGACGUUUCUCGAAUUUUCGGUGUAUGCCUCCAAA | < 1e-05 |
| AUAAAAGCGCCAGAACUACAGAAAUGUAGUUGACGAGGUGUAGGUUUAUCGAAUUUUCGGCGGAUGCCUCAAAA | 4.06e-05 ± 2e-05 |
| AUAAAAGCGCCAGAACUACAGAAAUGUAGUUGACGAGGGGGACGUUUAUCGCAUUUUCGGCGGAUGCCUCCAAA | < 1e-05 |
| AUAAAAGCGCCAGAACUACAGAAAUGUAGUUGACGAGCAGGAGGUGUAUCGAAUUUUCGGCGGAUGCGUCCAAA | < 1e-05 |
| AUAAAAGCGCCAGAACUACAGAAAUGUAGUUGACGAGGGCCAGGUGUAUCGGAUUUUCGGCGGAUGCCUCCAAA | < 1e-05 |
| AUAAAAGCGCCAGAACUACAGAAAUGUAGUUGACGAUUAGGAGGUUUACCGAAUUUUCAGCGGAUGCCUCCAAA | < 1e-05 |
| AUAAAAGCGCCAGAACUACAGAAAUGUAGUUGACGAGGAAGAGGUUUAUCGAAUCUUGGGCGGAUGCCUCCAAA | < 1e-05 |
| AUAAAAGCGCCAGAACUACAGAAAUGUAGUUGACGAGGUGGCGGGUUAUCGAAUUUUCGGCGGAUGCCUCCAAA | 0.000613 ± 0.00019 |
| AUAAAAGCGCCAGAACUACAGAAAUGUAGUUGACGAGGUGGGGGUUUAUCGAAUUUUCGGCGGUUGCCUCCAAA | 5.16e-05 ± 2.2e-05 |
| AUAAAAGCGCCAGAACUACAGAAAUGUAGUUGACGAGGACGAGGUUAAUCGAAUUUUCGGCCGAUGCCUCCAAA | < 1e-05 |
| AUAAAAGCGCCAGAACUACAGAAAUGUAGUUGACGAGGCGGAGGUUAAUCGAAUUUUCGGCGGAUCCCUCCAAA | 0.000411 ± 8.5e-05 |

| Variant | self-cleavage kobs at 2500 uM GlcN6P [s⁻¹] |
| --- | --- |
| AUAAAAGCGCCAGAACUACAGAAAUGUAGUUGACGAGUAGGAGGUUUAUCGAAUUUUCGGCGGAAGCCUGCAAA | 0.000107 ± 3.6e-05 |
| AUAAAAGCGCCAGAACUACAGAAAUGUAGUUGACGAGGGGGAGGUUUAUCGAAUCUUCGGCGGGUGCCUCCAAA | 0.00694 ± 0.0013 |
| AUAAAAGCGCCAGAACUACAGAAAUGUAGUUGACGAGAAGGAGCUUUAUCGAAUUUUCGGCGGAUGCCUCCAAA | < 1e-05 |
| AUAAAAGCGCCAGAACUACAGAAAUGUAGUUGACGAGGGGGAGGUUUAUCGAAAUUUCGGCGGAUGCCUCGAAA | 0.00114 ± 0.00046 |
| AUAAAAGCGCCAGAACUACAGAAAUGUAGUUGACGAGUAUGAGGUUUAUCGAAUUUUCGGCGGAUGCCUACAAA | < 1e-05 |
| AUAAAAGCGCCAGAACUACAGAAAUGUAGUUGACGAGGGUGAGGUUUAUCGAAAUUUCGGCGGAUGCCUCCAAA | 0.000126 ± 6.2e-05 |
| AUAAAAGCGCCAGAACUACAGAAAUGUAGUUGACGAGGCGGAGGUUUAUCGAUUUUUCGGCGGGUGCCUCCAAA | 0.00188 ± 0.00024 |
| AUAAAAGCGCCAGAACUACAGAAAUGUAGUUGACGAGGCGGAUGUUUUUCUAAUUUUCGGCGGAUGCCUCCAAA | < 1e-05 |
| AUAAAAGCGCCAGAACUACAGAAAUGUAGUUGACGAGGUGGAGGUUUAUCGAAUUUUCGACGGAGGCCUCCAAA | < 1e-05 |
| AUAAAAGCGCCAGAACUACAGAAAUGUAGUUGACGAGUAGUAGGUUUAUGGAAUUUUCGGCGGAUGCGUCCAAA | < 1e-05 |
| AUAAAAGCGCCAGAACUACAGAAAUGUAGUUGACGAGGUGGAGGUUUAUCGAAUUCUCGGCGGAUGGCUCCAAA | 3.66e-05 ± 9.2e-06 |
| AUAAAAGCGCCAGAACUACAGAAAUGUAGUUGACGAGCAGGAGGUUUAUCGAAUUUUCGCCGGAUUCCUCCAAA | < 1e-05 |
| AUAAAAGCGCCAGAACUACAGAAAUGUAGUUGACGAGGCGGAGGAUUAUGGAAUUUUCGGCGGAUGCCUGCAAA | < 1e-05 |
| AUAAAAGCGCCAGAACUACAGAAAUGUAGUUGACGAGGACGAGGUUUAUCGAAUUUUCGGCGGAUCCCUCCAAA | 0.000833 ± 0.00021 |
| AUAAAAGCGCCAGAACUACAGAAAUGUAGUUGACGAGGUGCAGGUUUAUCGUAUUUUCGGCGGAUGCCUCCAAA | < 1e-05 |
| AUAAAAGCGCCAGAACUACAGAAAUGUAGUUGACGAGCAGGACGUUUAUCGAAUUGUCGGCGGAUGACACCAAA | < 1e-05 |
| AUAAAAGCGCCAGAACUACAGAAAUGUAGUUGACGAGUAUGAGGUUUUUCGAAUUUUCGGCGGAUGCGUCCAAA | < 1e-05 |

Variants of: B1
Experiment: self-cleavage kobs at 10000 uM GlcN6P; higher = faster cleavage; RNA array
Conditions: with glucosamine-6-phosphate
Method in brief: as §1

| Variant | self-cleavage kobs at 10000 uM GlcN6P [s⁻¹] |
| --- | --- |
| AUAAAAGCGCCAGAACUACAGAAAUGUAGUUGACGAGGUGGAGGUGUAUCGAAUUUUCGGCGGAUGCCUACAAA | 0.000162 ± 3.2e-05 |
| AUAAAAGCGCCAGAACUACAGAAAUGUAGUUGACGAGAAGGAGCUUUAUCGAAUUUUCGGCGGAUGCCUCCAAA | < 1e-05 |
| AUAAAAGCGCCAGAACUACAGAAAUGUAGUUGACGAGGUGGAGGUUUAUCGAAUUUUCGACGGAGGCCUCCAAA | < 1e-05 |
| AUAAAAGCGCCAGAACUACAGAAAUGUAGUUGACGAGGACGAGGUUUAUCGAAUUUUCGGCGGAUCCCUCCAAA | 0.000531 ± 6.3e-05 |
